From US12677828B2, “Lipid encasing amphipathic peptides” (Kansas State University Research Foundation, priority 2019, dated 2026)

Assays:
[1] = Resizing by extrusion through 100 nm polycarbonate filters; format: physicochemical; conditions: extruded through 100 nm polycarbonate filters
Source text: Given that particle sizes for both peptides were above the nanoscale cutoff of 100 nm, the samples were subjected to resizing by extruding them through 100 nm polycarbonate filters. The […]-L particles were resized to about 80 nm after extrusion (data not shown). The […]-L particles could be resized to about 90 nm.

[2] = Average size and zeta potential by light scattering (ZetaPlus), soy oil colloids; format: physicochemical; conditions: peptide colloids in high purity soy oil
Procedure: Peptide colloids were prepared with either Ac-FLIVI-KKKKK-CO-NH2 (SEQ ID NO:1, where X is F, “h5F-L”) or Ac-VLIVI-KKKKK-CO-NH2 (SEQ ID NO:1, where X is V, “h5V-L”), in high purity soy oil were tested for average size and zeta potential (surface charge) using light scattering on a ZetaPlus particle sizing instrument. A control was prepared using high purity soy oil mixed with water and sonicated.

Aspergillus nidulans = test: Antifungal activity on spore seeded plates (1% skim milk agar), Example 3; format: cell-based; conditions: 0.5% Captan in 1:1 propionic acid/soy oil, applied as mixture alone (label Captan) or encased in the named peptide; 5 to 40 μL spotted
Procedure: A 0.5% solution of Captan was prepared in a 1:1 mixture of propionic acid and soy oil (final volume of 10 μL for each peptide). The solution was added to 1 mg of dried peptide. After incubating for 15 min, water (490 μL, pH=3) was added dropwise, then sonicated in a bath sonicator for 5 min at 37° C. and allowed to stand for 20 min. The sample was then centrifuged at room temperature for 10 min at 14K×g. At this point each peptide-lipid complex formed a whitish film on the surface of the water. The volume of water was reduced using a Pipetman leaving a final volume of 150 μL. The solution was again vortexed to resuspend the colloids. An illustration of the colloidal particle with the active ingredient distributed throughout the colloidal body is shown in FIG. 3. A number of different controls were tested along with the peptides prepared with all of the components: soy oil only, soy oil+propionic acid, soy oil+propionic acid+Captan. Volumes of from 5 to 40 μL were spotted on spore seeded plates of Aspergillus nidulans grown on 1% skim milk agar gel) yielding 0.33 and 1.33 μg of active agent delivered, respectively (FIG. 4).
In FIG. 4, lawns of A. were seeded just before testing. The actively growing fungus appears greenish yellow in color. For controls (FIG. 5A) soy oil and soy oil+propionic acid (1:1, v/v) were applied directly to the plates at the indicated volumes. […] When the 1:1 soy plus propionic acid was separately encased using the two peptides (FIG. 5B, columns 1 and 2) there was minimal antifungal activity. In FIG. 5C, column 1, Captan was dissolved in the propionic acid prior to mixing with the soy oil.

[3] = Dynamic light scattering of LEAP alone in water (micelles); format: physicochemical; conditions: 1 mg peptide in water, no excipient
Procedure: One mg of the LEAP (Ac-FLIVIKKKK-CONH2, SEQ ID NO:1, where X is F) was dissolved in 500 μL of DDI-RO water. The solution was sonicated for 10 min then allowed to rest at room temperature for approximately 60 min. This solution was further diluted to 10 mL with DDI-RO water prior to dynamic light scattering analysis. Light scattering data was recorded using an Anton-Parr Litesizer 500 instrument and processed using the proprietary ‘Kalliope’ analysis software. The DLS calculations indicated particles with a hydrodynamic diameter of 928.3 nm with peak numerical intensity at 120.09 nm and a polydispersity index of 229.1%.

[4] = Stability of colloids in water solution; format: physicochemical; conditions: soy oil colloids
Procedure: (§1) Initial encapsulation studies were carried out using high purity soy oil containing a lipid soluble dye, Nile Red. Studies were carried out using FLIVI-KKKKK (SEQ ID NO:1, where X is F). Increasing concentrations of the peptide (see FIG. 2) were prepared in Trifluoroethanol and dried in vacuo. To each tube, 22 μL of soy oil containing Nile Red dye (1 mg/mL) was added and allowed to stand for 15 min. Distilled/deionized water (480 μL) was then added and mixed repeatedly using a vortex mixer over a period of at least 5 min. The solution became somewhat cloudy as the dye containing colloids formed at the higher peptide concentrations. 25% was encapsulated at 0.5 mM peptide concentration with 80% encapsulated by the 1 mM peptide concentration. The colloids formed using the FLIVI-KKKKK (SEQ ID NO:1, where X is F) sequence remain stable in a water solution for extended periods of time (at least 12 months).

[5] = Encapsulation of soy oil containing Nile Red dye by peptide; format: physicochemical; conditions: 22 μL soy oil with Nile Red, 480 μL water
Procedure: as §1

A. nidulans = test: Growth inhibition, Captan alone or LEAP encapsulated at different concentrations, Example 4; format: cell-based, Aspergillus nidulans; conditions: 50 μL per plate
Procedure: In this example, the effectiveness of Captan alone or encased in a LEAP colloidal particle on A. nidulans growth was compared. Different concentrations of Captan were tested for growth inhibition when applied directly to freshly seeded fungi growing on 1% milk plates or after encapsulation as a colloidal particle with a LEAP (h5F-L). Captan was dissolved in a formulated (1:1:2) solution containing propionic acid, soy oil, and a pesticide synergist, Piperonyl butoxide (PBO). The resulting active solution was diluted to the following concentrations: 1%, 0.1%, 0.05%, 0.01%, 0.005%, 0.001%. A volume of 50 μL of the 1:1:2 solution containing the fungicide was combined with 1 mmole of dry peptide and then allowed to stand for 20 minutes. Deionized water was then added to the colloidal mixture to raise the total volume to 1 mL, followed by sonicating the mixture for 5 minutes, and then incubating for 60-90 minutes. A volume of 50 μL for each test solution was added to the center of each plate (FIG. 6).

[6] = cited from earlier work
M. sexta larvae = test: Persistence assay, 3-day and 5-day waiting period before adding larvae; format: in vivo, Manduca sexta; conditions: Novarulon 0.02%; both waiting periods (3-day, 5-day) before adding first instar larvae
Procedure: Subsequently, a persistence assay was conducted to see if the LEAP colloidal particles could protect the active ingredient from environmental degradation. Two studies were conducted, one with a 3-day (FIG. 8) and the other with a 5-day (FIG. 9) waiting period before adding the first instar larvae. The methods used to prepare the LEAP colloidal particle encased materials and the preparation of the coated leaves were identical as described above, except that the leaf discs were allowed to sit in the incubator under the previously described conditions outlined above for the designated time period. After the designated waiting period, 1-day old (first instar) M. sexta larvae were place on the treated leaves. Each day the number of dead larvae were counted. Examining FIGS. 8 and 9, it is clear to see that the LEAP colloidal particles containing the active ingredient Novarulon started killing faster than the Novarulon control. […] Since the Novarulon by itself was still active it appears that coating the Novarulon containing oil droplet with the peptide appears to have been ingested more efficiently such that the lethal dose was achieved more rapidly.

[7] = system: leaves of Vicia faba (Fava beans); test: Effects of formulations sprayed on leaves; conditions: Vicia faba (fava bean), in vivo, 24 h
Procedure: In this study, we looked at the effects of the Captan fungicide formulation with and without the LEAP peptide when applied to the leaves of Vicia faba (Fava beans). Three formulations were prepared for this experiment: […]
Deionized water was added to each formulation to a final volume 1 mL and allowed to stand at room temperature for 60-90 min. […]

Ac-VLIVI-KKKKK-CO-NH2 (Ac-VLIVIKKKKK-NH2) [h5V-L, lipid encasing amphipathic peptide]
particle size after extrusion [1]: about 90 nm
GSD [2]: GSD 1.528
Median Diam. [2]: Median Diam. 216.5 nm
zeta potential [2]: 43±1.6 mV
antifungal activity (Aspergillus nidulans): a small amount of antifungal activity

Ac-FLIVI-KKKKK-CO-NH2 (Ac-FLIVIKKKKK-NH2) [h5F-L, lipid encasing amphipathic peptide]
particle size after extrusion [1]: about 80 nm
peak numerical intensity [3]: 120.09 nm
polydispersity index [3]: 229.1%
hydrodynamic diameter ([3]; diluted to 10 mL): 928.3 nm
GSD [2]: GSD 1.618
Median Diam. [2]: Median Diam. 363.8 nm
zeta potential [2]: 46±2.5 mV
antifungal activity (Aspergillus nidulans): complete growth inhibition

FLIVI-KKKKK (XLIVIKKKKK; (1)..(1) X is F or V)
colloids remain stable in a water solution [4]: at least 12 months
encapsulated ([5]; 0.5 mM peptide concentration): 25%
encapsulated ([5]; 1 mM peptide concentration): 80%

O=C1[C@H]2CC=CC[C@H]2C(=O)N1SC(Cl)(Cl)Cl [Captan, (3aR,7aS)-2-[(Trichloromethyl)sulfanyl]-3a,4,7,7a-tetrahydro-1H-isoindole-1,3(2H)-dione]
growth inhibition (A. nidulans; 0.1% concentration): only slight inhibition
growth inhibition (A. nidulans; highest concentration (1%), propionic acid, soy oil, PBO (1:1:2)): strong growth inhibition
solubility in propionic acid ([6]; C3 organic acid, propionic acid): good solubility
solubility in water relative to acetone and xylene (fold less) ([6]; water vs acetone, xylene): 4000 fold
antifungal activity (Aspergillus nidulans): not very effective

1-[3-chloro-4-phenyl]-3-urea [Novarulon]
killing of larvae (M. sexta larvae): still active

CCC(=O)O [propionic acid]
leaf damage [7]: black spots on the leaves after 24 hr
